B1: FITC-dsDNA (dsDNA)
DNA 1: ATGGAATGGAAT
DNA 2: ATTCCATTCCAT
B2: dsDNA (dsDNA)
DNA 1: ATGGAATGGAAT
DNA 2: ATTCCATTCCAT

How the values were obtained:
[1] = molecular target: bovine SOD1, rhodamine B labeled (bovine, UniProt P00442 2-152); assay: FRET; 20 mM Tris-HCl pH 7.4; 100 uM DNA, 200 uM SOD1; fitted from kinetic curve; FRET: 20 mM Tris-HCl pH 7.4, 37 C, 2 h; MST: 10 mM PBS pH 7.4, 0.05% Tween, room temperature, 5 min; SAXS: 100 uM bovine SOD1 and dsDNA, buffer not given in material; conditions: protein: commercial; tags: rhodamine B label; chain copies: 2; blunt
Chain of bovine SOD1, rhodamine B labeled (P00442 2-152): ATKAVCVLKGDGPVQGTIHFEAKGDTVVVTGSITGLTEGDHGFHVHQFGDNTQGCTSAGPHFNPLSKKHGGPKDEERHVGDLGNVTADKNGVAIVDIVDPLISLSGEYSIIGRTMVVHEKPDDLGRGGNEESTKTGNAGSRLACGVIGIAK

[2] = molecular target: human Cu/Zn superoxide dismutase SOD1, RED-NHS labeled (human, UniProt P00441 1-154); assay: MST; 500 nM SOD1; DNA two-fold dilutions from 20 uM; FRET: 20 mM Tris-HCl pH 7.4, 37 C, 2 h; MST: 10 mM PBS pH 7.4, 0.05% Tween, room temperature, 5 min; SAXS: 100 uM bovine SOD1 and dsDNA, buffer not given in material; conditions: protein: recombinant; tags: N-terminal His tag; RED-NHS dye; chain copies: 2; blunt
Chain of human Cu/Zn superoxide dismutase SOD1, RED-NHS labeled (P00441 whole entry): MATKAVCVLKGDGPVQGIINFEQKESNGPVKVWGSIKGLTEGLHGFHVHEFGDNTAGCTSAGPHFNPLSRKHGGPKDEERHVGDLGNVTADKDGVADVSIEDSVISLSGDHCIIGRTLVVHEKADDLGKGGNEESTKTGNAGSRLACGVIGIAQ

Binder | Kd [1] [nM] | Kd [2] [nM]
B1 | 105 | –
B2 | – | 155
